Data as given in paper PMC3684718, “Novel CAD-like enzymes from Escherichia coli K-12 as additional tools in chemical production” (Applied Microbiology and Biotechnology, 2012).

B1: YjgB (Escherichia coli K-12) (protein)
chain: MSMIKSYAAKEAGGELEVYEYDPGELRPQDVEVQVDYCGICHSDLSMIDNEWGFSQYPLVAGHEVIGRVVALGSAAQDKGLQVGQRVGIGWTARSCGHCDACISGNQINCEQGAVPTIMNRGGFAEKLRADWQWVIPLPENIDIESAGPLLCGGITVFKPLLMHHITATSRVGVIGIGGLGHIAIKLLHAMGCEVTAFSSNPAKEQEVLAMGADKVVNSRDPQALKALAGQFDLIINTVNVSLDWQPYFEALTYGGNFHTVGAVLTPLSVPAFTLIAGDRSVSGSATGTPYELRKLMRFAARSKVAPTTELFPMSKINDAIQHVRDGKARYRVVLKADF
notes: expressed in E. coli BL21(DE3) with ZnCl2
B2: YahK (Escherichia coli K-12) (protein)
chain: MKIKAVGAYSAKQPLEPMDITRREPGPNDVKIEIAYCGVCHSDLHQVRSEWAGTVYPCVPGHEIVGRVVAVGDQVEKYAPGDLVGVGCIVDSCKHCEECEDGLENYCDHMTGTYNSPTPDEPGHTLGGYSQQIVVHERYVLRIRHPQEQLAAVAPLLCAGITTYSPLRHWQAGPGKKVGVVGIGGLGHMGIKLAHAMGAHVVAFTTSEAKREAAKALGADEVVNSRNADEMAAHLKSFDFILNTVAAPHNLDDFTTLLKRDGTMTLVGAPATPHKSPEVFNLIMKRRAIAGSMIGGIPETQEMLDFCAEHGIVADIEMIRADQINEAYERMLRGDVKYRFVIDNRTLTD
notes: as for B1

Columns and labels:
[1] = substrate: OCCCCO; assay: purified protein, by the assay type; design: NADPH/NADP+ absorbance at 340 nm, purified His-tagged enzyme, Michaelis-Menten fit; pH 7.5 reduction, pH 8.5 oxidation, 37 °C
Experimental: (§1) The ADH activity was determined photometrically by monitoring the increase/decrease of NADP^+/NADPH at 340 nm in a Mulitskan® spectrum spectrophotometer (Thermo Fisher Scientific). The reaction mixture contained 50 mM Tris-HCl, pH 7.5, 0.3 mM NAD(P)H a defined aldehyde as substrate, and the purified enzyme at 37 °C. One unit of enzyme activity was defined as the amount of protein that oxidizes 1 μmol of NAD(P)H/min at 37 °C. Calculation of Michaelis–Menten kinetics for determination of K m and V max was done with SigmaPlot 11.0 (Systat Software). Alcohols with alkyl chains longer than C6 were not tested as substrates due to solubility problems. For the characterization of recombinant YahK and YjgB, enzyme activity was assayed for the reduction of carbonyl compounds and the oxidation of alcohols. For the reduction of carbonyl compounds, the assays were conducted at pH 7.5, 50 mM Tris-HCl, and 37 °C. The oxidation of alcohols was assayed with a slightly higher pH of 8.5, 50 mM Tris-HCl, and 37 °C. […] The decrease of NADPH at 340 nm was determined using a Shimadzu UV-1800 UV-spectrophotometer (Duisburg, Germany) Protein expression is exemplarily described for one enzyme and was performed for other proteins by the same procedure. E. coli BL21(DE3) containing the plasmid of interest was grown in 50 ml autoinduction media for efficient protein expression (Studier [2005]). In the case of YjgB, YahK, and YqhD, additional ZnCl2 was added to the media with a final concentration of 0.1 mM. The preculture was incubated in 4 ml of LB medium with 100 μg/ml kanamycin at 37 °C overnight on a rotary shaker (180 rpm). Expression culture was inoculated with a 1:100 dilution of overnight culture. Incubation was performed foremost 3 h at 37 °C followed by incubation for 21 h at 16 °C. Cells were harvested by centrifugation and resuspended in 50 mM sodium phosphate buffer (pH 8.0, 20 mM imidazol, 500 mM NaCl, and 10 % glycerol). Crude extracts were prepared by use of a cell disrupter (IUL Instruments) and subsequent addition of MgCl2 to a final concentration of 2.5 mM in combination with DNase (1 μg/ml) and a following incubation for 20 min at room temperature for DNA degradation. The insoluble fraction of the lysate was removed by centrifugation at 20,000 rpm for 40 min at 4 °C. The supernatant was filtered through a 0.45-μm syringe filter and applied to an affinity resin column, 5 ml HisTrap^TM FF, equilibrated with the resuspension buffer using the ÄKTA UPC-900 FPLC-system. The enzyme was washed with 20 ml of resuspension buffer and eluted with 50 mM sodium phosphate buffer (pH 8.0, 500 mM imidazol, 500 mM NaCl, and 10 % glycerol). Aliquots of each eluted fraction were subjected to 12 % SDS-PAGE. The fractions containing the eluted protein were pooled and the protein was desalted using a HiPrep^TM 26/10 Desalting column which preliminary equilibrated with 50 mM Tris-HCl, pH 8.0. Protein concentrations were determined using a Bradford assay Roti®-nanoquant (Carl Roth).

[2] = substrate: CC(C)C=O; assay: purified protein, by the assay type; design: NADPH/NADP+ absorbance at 340 nm, purified His-tagged enzyme, Michaelis-Menten fit; pH 7.5 reduction, pH 8.5 oxidation, 37 °C
Experimental: as §1

[3] = substrate: CC=O; assay: purified protein, by the assay type; design: NADPH/NADP+ absorbance at 340 nm, purified His-tagged enzyme, Michaelis-Menten fit; pH 7.5 reduction, pH 8.5 oxidation, 37 °C
Experimental: as §1

purified protein [4] = substrate: CCCCCC=O; assay: purified protein; details: NADPH 0.3 mM, 50 mM Tris-HCl pH 7.5, 37 °C
purified protein [5] = substrate: CCCCO; assay: purified protein; type: biochemical, Escherichia coli; details: NADP+, 50 mM Tris-HCl pH 8.5, 37 °C, pH 8.5
purified protein [6] = substrate: C/C=C/C=O; assay: purified protein; type: biochemical, Escherichia coli; details: NADPH 0.3 mM, 50 mM Tris-HCl pH 7.5, 37 °C, pH 7.5
purified protein [7] = substrate: O=CCCCC=O; assay: purified protein; type: biochemical, Escherichia coli; details: NADPH 0.3 mM, 50 mM Tris-HCl pH 7.5, 37 °C, pH 7.5
purified protein [8] = substrate: CCCC=O; assay: purified protein; type: biochemical, Escherichia coli; details: NADPH 0.3 mM, 50 mM Tris-HCl pH 7.5, 37 °C, pH 7.5
purified protein [9] = substrate: O=Cc1ccccc1; assay: purified protein; type: biochemical, Escherichia coli; details: NADPH 0.3 mM, 50 mM Tris-HCl pH 7.5, 37 °C, pH 7.5
purified protein [10] = substrate: O=Cc1ccco1; assay: purified protein; type: biochemical, Escherichia coli; details: NADPH 0.3 mM, 50 mM Tris-HCl pH 7.5, 37 °C, pH 7.5
purified protein [11] = substrate: NC(=O)C1=CN([C@@H]2O[C@H](COP(=O)(O)OP(=O)(O)OC[C@H]3O[C@@H](n4cnc5c(N)ncnc54)[C@H](OP(=O)(O)O)[C@@H]3O)[C@@H](O)[C@H]2O)C=CC1; assay: purified protein; type: biochemical, Escherichia coli; details: butyraldehyde, 50 mM Tris-HCl pH 7.5, 37 °C, pH 7.5, varied: cofactor
purified protein [12] = substrate: NC(=O)c1ccc[n+]([C@@H]2O[C@H](COP(=O)(O)OP(=O)(O)OC[C@H]3O[C@@H](n4cnc5c(N)ncnc54)[C@H](OP(=O)(O)O)[C@@H]3O)[C@@H](O)[C@H]2O)c1; assay: purified protein; type: biochemical, Escherichia coli; details: butanol, 50 mM Tris-HCl pH 8.5, 37 °C, pH 8.5, varied: cofactor
purified protein [13] = substrate: CCC=O; assay: purified protein; type: biochemical, Escherichia coli; details: NADPH 0.3 mM, 50 mM Tris-HCl pH 7.5, 37 °C, pH 7.5
[14] = substrate: CCC=O; assay: purified protein, by the assay type; design: NADPH/NADP+ absorbance at 340 nm, purified His-tagged enzyme, Michaelis-Menten fit; pH 7.5 reduction, pH 8.5 oxidation, 37 °C
Experimental: as §1

purified protein [15] = substrate: O=C[C@H](O)CO; assay: purified protein; details: NADPH 0.3 mM, 50 mM Tris-HCl pH 7.5, 37 °C
purified protein [16] = substrate: CC(C)C=O; assay: purified protein; details: NADPH 0.3 mM, 50 mM Tris-HCl pH 7.5, 37 °C

| Protein | Km [1] [mM] | kcat [1] [s⁻¹] | kcat/Km [1] [M⁻¹ s⁻¹] | Km [3] [mM] | kcat [3] [s⁻¹] | kcat/Km [3] [M⁻¹ s⁻¹] | Km (purified protein [4]) [mM] | kcat (purified protein [4]) [s⁻¹] | kcat/Km (purified protein [4]) [M⁻¹ s⁻¹] | Km (purified protein [6]) [mM] | kcat (purified protein [6]) [s⁻¹] | kcat/Km (purified protein [6]) [M⁻¹ s⁻¹] | Km (purified protein [7]) [mM] | kcat (purified protein [7]) [s⁻¹] | kcat/Km (purified protein [7]) [M⁻¹ s⁻¹] | Km (purified protein [8]) [mM] | kcat (purified protein [8]) [s⁻¹] | kcat/Km (purified protein [8]) [M⁻¹ s⁻¹] | Km (purified protein [9]) [mM] | kcat (purified protein [9]) [s⁻¹] | further results |
| --- | --- | --- | --- | --- | --- | --- | --- | --- | --- | --- | --- | --- | --- | --- | --- | --- | --- | --- | --- | --- | --- |
| B1 | 24.1 ± 1.5 | 12.9 ± 0.4 | 530 | 73.4 ± 5.4 | 333 ± 26.1 | 4500 | 0.34 ± 0.03 | 419 | 1.23e+06 | 2.4 ± 0.2 | 77.6 ± 3.3 | 32300 | 5.8 ± 0.5 | 312 ± 14.8 | 53800 | 2.1 ± 0.09 | 464 ± 24.2 | 221000 | 0.24 ± 0.02 | 313 ± 7.4 | Km [2]: 193.7 ± 27.5 mM; kcat [2]: 50.8 ± 9.4 s⁻¹; kcat/Km [2]: 260 M⁻¹ s⁻¹; Km (purified protein [5]): 3.5 ± 0.28 mM; kcat (purified protein [5]): 13.8 ± 0.6 s⁻¹; kcat/Km (purified protein [5]): 3940 M⁻¹ s⁻¹; kcat/Km (purified protein [9]): 1.3e+06 M⁻¹ s⁻¹; Km (purified protein [10]): 0.22 ± 0.02 mM; kcat (purified protein [10]): 224 ± 26.9 s⁻¹; kcat/Km (purified protein [10]): 1.02e+06 M⁻¹ s⁻¹; Km (purified protein [11]): 0.06 ± 0.003 mM; kcat (purified protein [11]): 224 ± 36.5 s⁻¹; kcat/Km (purified protein [11]): 3.73e+06 M⁻¹ s⁻¹; Km (purified protein [12]): 0.076 ± 0.01 mM; kcat (purified protein [12]): 14.4 ± 0.2 s⁻¹; kcat/Km (purified protein [12]): 189000 M⁻¹ s⁻¹; Km (purified protein [13]): 19.6 ± 0.8 mM; kcat (purified protein [13]): 207 ± 2.9 s⁻¹; kcat/Km (purified protein [13]): 10600 M⁻¹ s⁻¹ |
| B2 | 38.5 ± 2.9 | 6.7 ± 0.3 | 180 | 13.3 ± 1.0 | 11.2 ± 0.7 | 840 | 0.37 ± 0.02 | 18.3 | 49500 | 3.6 ± 0.4 | 32.6 ± 2.1 | 9100 | 4.1 ± 0.4 | 13.4 ± 1.5 | 3300 | 2.1 ± 0.1 | 41.6 ± 0.6 | 19800 | 0.29 ± 0.02 | 7.75 ± 0.5 | Km [14]: 10.9 ± 1.0 mM; kcat [14]: 11.6 ± 0.6 s⁻¹; kcat/Km [14]: 1100 M⁻¹ s⁻¹; Km (purified protein [15]): 4.4 ± 0.4 mM; kcat (purified protein [15]): 12.3 s⁻¹; kcat/Km (purified protein [15]): 2800 M⁻¹ s⁻¹; Km (purified protein [16]): 2.2 ± 0.2 mM; kcat (purified protein [16]): 32.1 s⁻¹; kcat/Km (purified protein [16]): 14600 M⁻¹ s⁻¹; kcat/Km (purified protein [9]): 26700 M⁻¹ s⁻¹; Km (purified protein [10]): 0.135 ± 0.03 mM; kcat (purified protein [10]): 12.5 ± 1.9 s⁻¹; kcat/Km (purified protein [10]): 92300 M⁻¹ s⁻¹; Km (purified protein [11]): 0.011 ± 0.001 mM; kcat (purified protein [11]): 9.8 ± 0.4 s⁻¹; kcat/Km (purified protein [11]): 894000 M⁻¹ s⁻¹; Km (purified protein [12]): 0.012 ± 0.001 mM; kcat (purified protein [12]): 7.47 ± 0.07 s⁻¹; kcat/Km (purified protein [12]): 622000 M⁻¹ s⁻¹ |
